Source: the supplement of paper PMC11316812
± gives the standard deviation of the averaged measurements.

Columns and labels:
[1] = system: MCF7; assay: percentage of EdU-negative (G0-arrested) nuclei per well, 72 h; higher = more G0 arrest; details: reference: sequence is the full UniProt precursor, the tested protein was the secreted form or ectodomain
[2] = system: hTERT-HMEC; assay: as above; details: reference: sequence is the full UniProt precursor, the tested protein was the secreted form or ectodomain
[3] = protein concentration 0.0357143 µM
[4] = protein concentration 0.357143 µM
[5] = protein concentration 0.0225 µM
[6] = protein concentration 0.03125 µM
[7] = protein concentration 0.3125 µM
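Further: secreted proteins added to cultured cells, EdU pulse at the end, nuclei found by Hoechst imaging, EdU status from nuclear versus surrounding ring intensity ratio, PBS as neutral control.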

Row | Sequence | percentage of EdU-negative [1, 5] [%] | percentage of EdU-negative ([1]; protein concentration 0.225 µM) [%] | percentage of EdU-negative [2, 5] [%] | percentage of EdU-negative ([2]; protein concentration 0.225 µM) [%] | also measured
1 | MAAAAATKILLCLPLLLLLSGWSRAGRADPHSLCYDITVIPKFRPGPRWCAVQGQVDEKTFLHYDCGNKTVTPVSPLGKKLNVTTAWKAQNPVLREVVDILTEQLRDIQLENYTPKEPLTLQARMSCEQKAEGHSSGSWQFSFDGQIFLLFDSEKRMWTTVHPGARKMKEKWENDKVVAMSFHYFSMGDCIGWLEDFLMGMDSTLEPSAGAPLAMSSGTTQLRATATTLILCCLLIILPCFILPGI [Q9BZM5] | – | – | – | – | percentage of EdU-negative [1, 3]: 22.2 ± 0.6%; percentage of EdU-negative [1, 4]: 25.5 ± 0.78%; percentage of EdU-negative [2, 3]: 4.46 ± 0.35%; percentage of EdU-negative [2, 4]: 5.89 ± 0.34%
2 | MGRPRPRAAKTWMFLLLLGGAWAGHSRAQEDKVLGGHECQPHSQPWQAALFQGQQLLCGGVLVGGNWVLTAAHCKKPKYTVRLGDHSLQNKDGPEQEIPVVQSIPHPCYNSSDVEDHNHDLMLLQLRDQASLGSKVKPISLADHCTQPGQKCTVSGWGTVTSPRENFPDTLNCAEVKIFPQKKCEDAYPGQITDGMVCAGSSKGADTCQGDSGGPLVCDGALQGITSWGSDPCGRSDKPGVYTNICRYLDWIKKIIGSKG | 26.4 ± 2.5 | 24.6 ± 0.69 | 4.99 ± 0.28 | 5.28 ± 0.5 | –
3 | MIFLLLMLSLELQLHQIAALFTVTVPKELYIIEHGSNVTLECNFDTGSHVNLGAITASLQKVENDTSPHRERATLLEEQLPLGKASFHIPQVQVRDEGQYQCIIIYGVAWDYKYLTLKVKASYRKINTHILKVPETDEVELTCQATGYPLAEVSWPNVSVPANTSHSRTPEGLYQVTSVLRLKPPPGRNFSCVFWNTHVRELTLASIDLQSQMEPRTHPTWLLHIFIPFCIIAFIFIATVIALRKQLCQKLYSSKDTTKRPVTTTKREVNSAI [Q9BQ51] | 23.9 ± 0.28 | 24.6 ± 0.78 | 4.79 ± 0.078 | 7.37 ± 0.34 | –
4 | MEGGDQSEEEPRERSQAGGMGTLWSQESTPEERLPVEGSRPWAVARRVLTAILILGLLLCFSVLLFYNFQNCGPRPCETSVCLDLRDHYLASGNTSVAPCTDFFSFACGRAKETNNSFQELATKNKNRLRRILEVQNSWHPGSGEEKAFQFYNSCMDTLAIEAAGTGPLRQVIEELGGWRISGKWTSLNFNRTLRLLMSQYGHFPFFRAYLGPHPASPHTPVIQIDQPEFDVPLKQDQEQKIYAQIFREYLTYLNQLGTLLGGDPSKVQEHSSLSISITSRLFQFLRPLEQRRAQGKLFQMVTIDQLKEMAPAIDWLSCLQATFTPMSLSPSQSLVVHDVEYLKNMSQLVEEMLLKQRDFLQSHMILGLVVTLSPALDSQFQEARRKLSQKLRELTEQPPMPARPRWMKCVEETGTFFEPTLAALFVREAFGPSTRSAAMKLFTAIRDALITRLRNLPWMNEETQNMAQDKVAQLQVEMGASEWALKPELARQEYNDIQLGSSFLQSVLSCVRSLRARIVQSFLQPHPQHRWKVSPWDVNAYYSVSDHVVVFPAGLLQPPFFHPGYPRAVNFGAAGSIMAHELLHIFYQLLLPGGCLACDNHALQEAHLCLKRHYAAFPLPSRTSFNDSLTFLENAADVGGLAIALQAYSKRLLRHHGETVLPSLDLSPQQIFFRSYAQVMCRKPSPQDSHDTHSPPHLRVHGPLSSTPAFARYFRCARGALLNPSSRCQLW | 26.89 ± 0.16 | 27.1 ± 3.5 | 4.88 ± 0.16 | 6.43 ± 0.18 | –
5 | MWPLWRLVSLLALSQALPFEQRGFWDFTLDDGPFMMNDEEASGADTSGVLDPDSVTPTYSAMCPFGCHCHLRVVQCSDLGLKSVPKEISPDTTLLDLQNNDISELRKDDFKGLQHLYALVLVNNKISKIHEKAFSPLRKLQKLYISKNHLVEIPPNLPSSLVELRIHDNRIRKVPKGVFSGLRNMNCIEMGGNPLENSGFEPGAFDGLKLNYLRISEAKLTGIPKDLPETLNELHLDHNKIQAIELEDLLRYSKLYRLGLGHNQIRMIENGSLSFLPTLRELHLDNNKLARVPSGLPDLKLLQVVYLHSNNITKVGVNDFCPMGFGVKRAYYNGISLFNNPVPYWEVQPATFRCVTDRLAIQFGNYKK | – | – | – | – | percentage of EdU-negative [1, 6]: 25.3 ± 1.7%; percentage of EdU-negative [1, 7]: 25.1 ± 3.1%; percentage of EdU-negative [2, 6]: 4.62 ± 0.74%; percentage of EdU-negative [2, 7]: 7.32 ± 0.21%
6 | MDFGLALLLAGLLGLLLGQSLQVKPLQVEPPEPVVAVALGASRQLTCRLACADRGASVQWRGLDTSLGAVQSDTGRSVLTVRNASLSAAGTRVCVGSCGGRTFQHTVQLLVYAFPDQLTVSPAALVPGDPEVACTAHKVTPVDPNALSFSLLVGGQELEGAQALGPEVQEEEEEPQGDEDVLFRVTERWRLPPLGTPVPPALYCQATMRLPGLELSHRQAIPVLHSPTSPEPPDTTSPESPDTTSPESPDTTSQEPPDTTSPEPPDKTSPEPAPQQGSTHTPRSPGSTRTRRPEISQAGPTQGEVIPTGSSKPAGDQLPAALWTSSAVLGLLLLALPTYHLWKRCRHLAEDDTHPPASLRLLPQVSAWAGLRGTGQVGISPS | 27.1 ± 4.2 | 26.3 ± 1.4 | 5.3 ± 0.25 | 5.85 ± 0.98 | –
7 | MVLAAPLLLGFLLLALELRPRGEAAEGPAAAAAAAAAAAAAGVGGERSSRPAPSVAPEPDGCPVCVWRQHSRELRLESIKSQILSKLRLKEAPNISREVVKQLLPKAPPLQQILDLHDFQGDALQPEDFLEEDEYHATTETVISMAQETDPAVQTDGSPLCCHFHFSPKVMFTKVLKAQLWVYLRPVPRPATVYLQILRLKPLTGEGTAGGGGGGRRHIRIRSLKIELHSRSGHWQSIDFKQVLHSWFRQPQSNWGIEINAFDPSGTDLAVTSLGPGAEGLHPFMELRVLENTKRSRRNLGLDCDEHSSESRCCRYPLTVDFEAFGWDWIIAPKRYKANYCSGQCEYMFMQKYPHTHLVQQANPRGSAGPCCTPTKMSPINMLYFNDKQQIIYGKIPGMVVDRCGCS | – | – | – | – | percentage of EdU-negative [1, 6]: 24.2 ± 2.7%; percentage of EdU-negative [1, 7]: 26.2 ± 3.2%; percentage of EdU-negative [2, 6]: 4.52 ± 0.24%; percentage of EdU-negative [2, 7]: 5.2 ± 0.9%
